From PMC2077811 (The Journal of biological chemistry, 2006)

Molecular target: T1, hRad51 (human, UniProt Q06609 1-339)
T1 sequence (looked up): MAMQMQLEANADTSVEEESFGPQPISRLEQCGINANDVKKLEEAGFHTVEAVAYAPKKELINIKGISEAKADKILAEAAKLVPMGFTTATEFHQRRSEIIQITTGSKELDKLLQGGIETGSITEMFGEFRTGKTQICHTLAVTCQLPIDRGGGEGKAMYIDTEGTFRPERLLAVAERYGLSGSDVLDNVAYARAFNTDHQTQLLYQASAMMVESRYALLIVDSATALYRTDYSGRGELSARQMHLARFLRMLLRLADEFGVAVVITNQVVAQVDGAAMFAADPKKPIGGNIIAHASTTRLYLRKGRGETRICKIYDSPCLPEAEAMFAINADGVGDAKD
Experiment: pull-down

binding result: binds
B1: GST-BRC3/4 (domain or fragment, human, UniProt P51587 1409-1596, looked up)
chain: LTATKTEQNIKDFETSDTFFQTASGKNISVAKESFNKIVNFFDQKPEELHNFSLNSELHSDIRKNKMDILSYEETDIVKHKILKESVPVGTGNQLVTFQGQPERDEKIKEPTLLGFHTASGKKVKIAKESLDKVKNLFDEKEQGTSEITSFSHQWAKTLKYREACKDLELACETIEITAAPKCKEMQN
